Results on one molecule are retold here after paper PMC4964276 (The Biochemical journal, 2016).

The Kd is a measure of binding affinity in units of concentration. A higher Kd goes with a looser complex. By stoichiometry N is commonly meant a count of units in the complex or per binding partner.

This assay concerns the target RIIα-D/D(1–44) used for ITC (human, UniProt P13861 1-44). Nature of the assay: ITC. For orientation: Isothermal titration calorimetry measures the heat released or taken up as one component is titrated into another.

Chain of RIIα-D/D(1–44) used for ITC (P13861 1-44): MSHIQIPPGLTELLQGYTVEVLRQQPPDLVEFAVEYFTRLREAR

Regarding NGGEPDDAELVRLSKRLVENAVLKAVQQYLEETQNKNKPGE (domain or fragment, human) [AKAP18β(43–83)], the Kd is 0.6 nM, the dH is -22550 ± 171 and the “stoichiometry N” value stood at 0.98 sites.
